Blank lines part the entries; values can stand above or below the molecule they belong to.
Columns and labels:
[1] = target: T1, Yeast Hsp90 (Saccharomyces cerevisiae, UniProt P02829); assay: Malachite green colorimetric ATPase assay, yeast Hsp90; assay type: biochemical
T1 construct: made in house; host or cells: E. coli
Description: The activity of enzymes that release inorganic phosphate can be measured using the reaction of the cationic dye, malachite green, with a phosphomolybdate complex to generate a blue-green colour with an absorbance maximum at 610 nm (Cogan, E. B. et al (1999) Anal. Biochem. 271, 29-35; Baykov, A. A. et al (1988) Anal. Biochem. 171, 266-270; Harder, K. W. et al (1994) Biochem. J. 298, 395-401; Maehama, T. et al (2000) Anal. Biochem. 279, 248-250) as described above.
Chemicals are of the highest purity commercially available and all aqueous solutions are made up in AR water. • 1. For the full length Aha1, an assay buffer of 45 mM Tris-HCl pH 7.5, 9 mM KCl, 3 mM MgCl may be used. For the C-and N-terminal domain of Aha1 or the Hch1 homologue, an 20 mM Tris-HCl pH 7.5, 4 mM KCl, 1.2 mM MgCl. An assay buffer of 100 mM Tris-HCl, pH 7.4, 20 mM KCl, 6 mM MgCl2 may also be used. Stored at 4° C. • 2. 0.0812% (w/v) malachite green (Sigma M 9636). Stored at room temperature. • 3. […]

[2] = target: T2, Human Hsp90 (Homo sapiens, UniProt P08238); assay: Stimulation of human HSP90 ATPase activity by Aha1; assay type: biochemical
T2 construct: made in house; host or cells: E. coli BL21 (DE3) pLysS (stated for Aha1 only)
T2 sequence (P08238 whole entry): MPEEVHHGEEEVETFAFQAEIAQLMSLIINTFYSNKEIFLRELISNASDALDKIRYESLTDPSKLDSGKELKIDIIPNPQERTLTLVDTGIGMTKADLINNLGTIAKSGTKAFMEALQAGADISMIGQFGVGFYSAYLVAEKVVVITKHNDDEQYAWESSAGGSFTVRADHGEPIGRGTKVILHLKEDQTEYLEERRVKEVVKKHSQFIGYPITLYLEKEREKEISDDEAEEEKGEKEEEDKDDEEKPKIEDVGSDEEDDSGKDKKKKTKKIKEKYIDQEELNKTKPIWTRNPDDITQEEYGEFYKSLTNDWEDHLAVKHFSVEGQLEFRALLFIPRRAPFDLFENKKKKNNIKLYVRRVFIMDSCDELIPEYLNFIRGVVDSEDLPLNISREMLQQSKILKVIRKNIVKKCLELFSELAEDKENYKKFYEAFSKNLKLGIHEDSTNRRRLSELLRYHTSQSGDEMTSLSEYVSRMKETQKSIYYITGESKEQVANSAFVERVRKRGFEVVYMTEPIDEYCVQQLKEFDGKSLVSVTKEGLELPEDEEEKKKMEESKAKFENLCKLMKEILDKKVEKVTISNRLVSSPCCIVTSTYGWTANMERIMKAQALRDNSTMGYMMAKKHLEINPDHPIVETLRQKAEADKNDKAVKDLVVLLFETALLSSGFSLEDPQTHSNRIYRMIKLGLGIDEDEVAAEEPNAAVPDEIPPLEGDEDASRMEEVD
Description: Each value is the mean±Sd of n=4 ATP at 0.6 mM.
Each point is the mean±SD of n=4 ATP at 0.6 mM.
Chemicals are of the highest purity commercially available and all aqueous solutions are made up in AR water. • 1. For the full length Aha1, an assay buffer of 45 mM Tris-HCl pH 7.5, 9 mM KCl, 3 mM MgCl may be used. For the C-and N-terminal domain of Aha1 or the Hch1 homologue, an 20 mM Tris-HCl pH 7.5, 4 mM KCl, 1.2 mM MgCl. An assay buffer of 100 mM Tris-HCl, pH 7.4, 20 mM KCl, 6 mM MgCl2 may also be used. Stored at 4° C. • 2. 0.0812% (w/v) malachite green (Sigma M 9636). Stored at room temperature. • 3. 2.32% (w/v) polyvinyl alcohol USP (Sigma P 1097). Stored at room temperature. The polyvinyl alcohol dissolves in boiling water with difficulty and stirring for 2-3 h is required • 4. 5.72% (w/v) ammonium molybdate in 6M hydrochloric acid. Stored at room temperature. • 5. […] Stored at room temperature. • 6. ATP, disodium salt, special quality (Boehringer Mannheim 519979). Stored at 4° C. • 7. […]
Initially, the reagent was a dark brown colour, but after standing at room temperature for about 2 h, this became a golden yellow colour and was ready for use. […]
To stop the incubation, 80 μl of the malachite green reagent was added to each well and the plate shaken again. […] The absorbance at 620 nm was measured using a suitable plate reader (e.g. Victor^2, PerkinElmer Life Sciences). […]

[3] = target: T3, Hsp90 (Saccharomyces cerevisiae, UniProt P02829); assay: Effect of Aha1, Aha1 domains or Hch1 concentration on geldanamycin dependent ATPase activity of Hsp90; assay type: biochemical; details: for Effect on Hsp90 ATPase activity (in words): FIG. 5 and 6, 20 mM Tris pH 7.5, 4 mM KCl, 1.2 mM MgCl2
T3 construct: made in house; host or cells: E. coli (if the yeast protein of the reagent list)
T3 sequence (P02829 whole entry, the tested form may be a part): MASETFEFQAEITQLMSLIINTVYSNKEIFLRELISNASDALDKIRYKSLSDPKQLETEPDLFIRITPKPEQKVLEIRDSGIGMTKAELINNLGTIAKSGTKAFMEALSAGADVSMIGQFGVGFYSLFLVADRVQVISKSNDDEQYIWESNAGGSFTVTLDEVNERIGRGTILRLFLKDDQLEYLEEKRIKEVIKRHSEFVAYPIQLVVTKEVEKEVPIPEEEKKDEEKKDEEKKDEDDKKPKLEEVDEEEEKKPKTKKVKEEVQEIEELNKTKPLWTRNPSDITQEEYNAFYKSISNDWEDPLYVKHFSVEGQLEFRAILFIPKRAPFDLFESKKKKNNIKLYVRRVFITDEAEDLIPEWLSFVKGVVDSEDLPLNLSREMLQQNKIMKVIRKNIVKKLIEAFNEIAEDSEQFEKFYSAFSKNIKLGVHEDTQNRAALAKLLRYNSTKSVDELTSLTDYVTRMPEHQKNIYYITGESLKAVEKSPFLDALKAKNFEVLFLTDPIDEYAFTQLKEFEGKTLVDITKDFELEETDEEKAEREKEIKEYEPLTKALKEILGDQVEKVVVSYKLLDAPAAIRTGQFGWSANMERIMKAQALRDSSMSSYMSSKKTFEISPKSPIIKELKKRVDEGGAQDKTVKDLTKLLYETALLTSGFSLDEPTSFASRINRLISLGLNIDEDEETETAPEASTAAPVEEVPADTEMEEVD
Description: Half activation is shown to be at […] Aha1. 0.2 μM Aha1 was used in a buffer consisting of 45 mM Tris pH 7.5, 9 mM KCl, 3 mM MgCl2.
2 μM Aha1 was used in a buffer consisting of 20 mM Tris pH 7.5, 4 mM KCl, 1.2 mM MgCl2.
Hch1 and truncated Aha1 polypeptides corresponding to the N and C terminal domains of full-length Aha1 were expressed and purified as described above. The N terminal domain polypeptide (nAha1) consisted of 162 aa from the N terminal MVVNNP to GNDIQV. The C terminal domain polypeptide (cAha1) consisted of the remainder of the Aha1 sequence.
Chemicals are of the highest purity commercially available and all aqueous solutions are made up in AR water. • 1. For the full length Aha1, an assay buffer of 45 mM Tris-HCl pH 7.5, 9 mM KCl, 3 mM MgCl may be used. For the C-and N-terminal domain of Aha1 or the Hch1 homologue, an 20 mM Tris-HCl pH 7.5, 4 mM KCl, 1.2 mM MgCl. An assay buffer of 100 mM Tris-HCl, pH 7.4, 20 mM KCl, 6 mM MgCl2 may also be used. Stored at 4° C. • 2. 0.0812% (w/v) malachite green (Sigma M 9636). Stored at room temperature. • 3. 2.32% (w/v) polyvinyl alcohol USP (Sigma P 1097). Stored at room temperature. The polyvinyl alcohol dissolves in boiling water with difficulty and stirring for 2-3 h is required • 4. 5.72% (w/v) ammonium molybdate in 6M hydrochloric acid. Stored at room temperature. • 5. […] Stored at room temperature. • 6. ATP, disodium salt, special quality (Boehringer Mannheim 519979). Stored at 4° C. • 7. E. coli expressed yeast HSP90 protein, purified >95% (10) and stored at −80° C. as 10 μl aliquots containing 0.5 mg of protein. Assay Protocol

[4] = target: Hsp90 (species not stated; FIGS. 4 to 6)
[5] = target: Human hsp90 beta protein (human) (UniProt P08238)

T1 sequence (P02829 whole entry): as the sequence (P02829 whole entry, the tested form may be a part) above

Molecule: C[C@@H]1C[C@H]2O[C@@H]2/C=C\C=C\C(=O)Cc2c(Cl)c(O)cc(O)c2C(=O)O1 [Radicicol, radicicol]
Inhibition of yeast HSP90 ATPase activity (in words) [1]: potent inhibitors

Molecule: C=CCNC1=C2C[C@@H](C)C[C@H](OC)[C@H](O)[C@@H](C)/C=C(\C)[C@H](OC(N)=O)[C@@H](OC)/C=C\C=C(/C)C(=O)NC(=CC1=O)C2=O [17AAG]
Inhibition of yeast HSP90 ATPase activity (in words) [1]: potent inhibitors

Molecule: Aha1: Aha1 (YDR214W) protein expressed in E. coli; co-activator stimulating Hsp90 ATPase activity
Increase of the activity of human Hsp90 in the presence of Aha1 [2]: approximately 2 fold | Effect on ATPase activity of increasing concentrations of human HSP90 (in words) ([2]; FIG. 1, ATP 0.6 mM): significantly increase | EC50 ([3]; FIG. 4, text of results, read-out: Aha1 concentration for half maximal activation of Hsp90): < 1000 nM

Half maximal activation of Hsp90 (geldanamycin dependent ATPase activity) [4]: < 1 µM | ATPase activity of human Hsp90 (malachite green assay of inorganic phosphate) [5]: 2 fold
Molecule: Aha1 (YDR214W), full length (from UniProt Q12449)

Molecule: Hch1: homologue of Aha1, expressed and purified like Aha1
Effect on Hsp90 ATPase activity (in words) [3]: activate Hsp90 ATPase activity, but to a lesser extent than the full length Aha1 polypeptide

B1: N terminal domain of Aha1: truncated Aha1 polypeptide of 162 aa from the N terminal MVVNNP to GNDIQV (protein)
chain: MVVNNPNNWHWVDKNCIGWAKEYFKQKLVGVEAGSVKDKKYAKIKSVSSIEGDCEVNQRKGKVISLFDLKITVLIEGHVDSKDGSALPFEGSINVPEVAFDSEASSYQFDISIFKETSELSEAKPLIRSELLPKLRQIFQQFGKDLLATHGNDIQV
Effect on Hsp90 ATPase activity (in words) [3]: activate Hsp90 ATPase activity, but to a lesser extent than the full length Aha1 polypeptide

B2: C terminal domain of Aha1: truncated Aha1 polypeptide consisting of the remainder of the Aha1 sequence (protein)
chain: PESQVKSNYTRGNQKSSFTEIKDSASKPKKNALPSSTSTSAPVSSTNKVPQNGSGNSTSIYLEPTFNVPSSELYETFLDKQRILAWTRSAQFFNSGPKLETKEKFELFGGNVISELVSCEKDKKLVFHWKLKDWSAPFNSTIEMTFHESQEFHETKLQVKWTGIPVGEEDRVRANFEEYYVRSIKLTFGFGAVL
Effect on Hsp90 ATPase activity (in words) [3]: little or no effect
